Data taken from US20190030156A1 (TECHNOVAX, published 2019).

Molecular target: RSV fusion glycoprotein (F) of RSV A2 strain virus (human respiratory syncytial virus A2 …, UniProt P03420 26-574)
Assay: cell-based or functional assay

Chain of RSV fusion glycoprotein (F) of RSV A2 strain virus (P03420 26-574): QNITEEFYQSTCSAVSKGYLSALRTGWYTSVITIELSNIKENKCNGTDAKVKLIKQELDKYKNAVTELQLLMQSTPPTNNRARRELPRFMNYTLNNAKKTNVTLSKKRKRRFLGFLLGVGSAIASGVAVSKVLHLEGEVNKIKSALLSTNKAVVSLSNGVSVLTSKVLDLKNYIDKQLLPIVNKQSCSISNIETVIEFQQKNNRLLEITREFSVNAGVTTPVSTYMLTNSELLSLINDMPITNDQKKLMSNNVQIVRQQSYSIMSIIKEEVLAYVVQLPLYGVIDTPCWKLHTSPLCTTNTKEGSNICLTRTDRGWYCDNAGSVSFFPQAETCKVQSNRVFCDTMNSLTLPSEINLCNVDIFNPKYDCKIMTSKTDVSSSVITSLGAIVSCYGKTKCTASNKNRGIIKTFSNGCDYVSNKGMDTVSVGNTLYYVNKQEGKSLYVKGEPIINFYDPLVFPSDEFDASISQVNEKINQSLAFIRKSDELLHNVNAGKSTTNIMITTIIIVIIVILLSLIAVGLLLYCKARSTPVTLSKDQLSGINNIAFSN

B1: Palivizumab (Synagis, MedImmune) (antibody, V domains shown)
VH: QVTLRESGPALVKPTQTLTLTCTFSGFSLSTSGMSVGWIRQPPGKALEWLADIWWDDKKDYNPSLKSRLTISKDTSKNQVVLKVTNMDPADTATYYCARSMITNWYFDVWGAGTTVTVSS
VL: DIQMTQSPSTLSASVGDRVTITCKCQLSVGYMHWYQQKPGKAPKLLIYDTSKLASGVPSRFSGSGSGTEFTLTISSLQPDDFATYYCFQGSGYPFTFGGGTKLEIK
  IC50 neutralizing activity (plaque reduction neutralization test, RSV A2 on HEp-2 cells): 2 µg/mL
